Assay results taken from the supplement of paper PMC9170038.

Tested on: MS2 coat protein
Experiment: apparent KD of MS2 coat protein; designed switch direction (-1 OFF switch, 1 ON switch): 1; higher = weaker reporter binding
In short: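 The buffer was Tris-HCl pH 7.5 with KCl, MgCl2, BSA, DTT, tRNA and Tween-20. In it, SNAP-549-labelled MS2 coat protein was titrated in doubling steps from 0.7 or 1.5 nM to 3 µM over chip-bound RNA switches transcribed by stalled E. coli RNA polymerase on Illumina chips. Apparent KD is the per-design median over clusters of curve fits to normalised fluorescence.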

[1] = input ligand: microRNA oligo, concentration not stated
[2] = Eterna round: R95, input ligand: FMN 200 uM
[3] = Eterna round: R95, input ligand: microRNA oligo, concentration not stated
[4] = Eterna round: R95, input ligand: none

| Sequence | apparent KD of MS2 coat protein (input ligand: FMN 200 uM) [nM] | apparent KD of MS2 coat protein [1] [nM] | apparent KD of MS2 coat protein (input ligand: none) [nM] | apparent KD of MS2 coat protein [2] [nM] | apparent KD of MS2 coat protein [3] [nM] | apparent KD of MS2 coat protein [4] [nM] |
| --- | --- | --- | --- | --- | --- | --- |
| CUGAGCAGUCAAGGAUAUCACGUCGUUUAGACGUGAGAAGGUGAUUAAUACAUGAGGAUCACCCAUGUAAUACAUGAAGCUCAG [SSNG1/11-A3] (Eterna round: R96, puzzle: Same State NG 1) | 20.9 | 30.9 | 42.5 |  |  |  |
| AAAAAACAUGAGGAUCACCCAUGUCAAAAGACAUGAGGAUAUGUACAGACUUCGGUCUGUACAGAAGGCAUGAAAA [salish99_ss1_r3_093] (Eterna round: R96, puzzle: Same State 1) |  | 359 |  |  |  |  |
| GCCGGCUGGUGAGGAUAUGGCGCCUUGUUGGUGCCAGAAGGCAUGUCAAUUGACAUGAGGAUCACCCAUGUGUUGUCGUUGGCG [salish99_SSNG1_r04_611] (Eterna round: R96, puzzle: Same State NG 1) | 808 | 110 | 459 |  |  |  |
| UCUUGGUUUUUGCUCGUUUUUUGUGUUGAACAUGAGGAUCACCCAUGUAUUGUACGGUCCGGUUUAGUGAUGAUCCA [JMF 76] (puzzle: Sensor for hsa-mir-208a) |  |  |  | 188 | 196 | 287 |
| AUUAAACAUGAGGAUCACCCAUGUCAACAAAGUCGAGGAUAUGGGCAAAUAAAAUUAGAACCAGAAGGCGAAUAAU [salish99_ss1_r3_063] (puzzle: Same State 1) |  |  |  | 29.2 | 167 | 229 |
| CAUCUCCCUUUUACAUGAGGAUCACCCAUGUUUUUAUAUUGAGAGGAUAUCGUAUUUAGAAACAUCGAGAAGGCUCAUUUGUAU [JR_SSNG3_Sub072] (Eterna round: R96, puzzle: Same State NG 3) | 83.2 | 89.1 | 153 |  |  |  |
| UUGGUGUAGAUACAGGAUAUGUUGCUCGUAACAUGAGGAUCACCCAUGUAUCUAUGAGAUUAAAUGCAGAAGGGUGCACAUCACU [salish99_ss2_r3_088] (puzzle: Same State 2) |  |  |  | 121 | 54.2 | 329 |
| AGCUAUUAAUCAGGAUAUAGGGACAUGAGGAUCACCCAUGUGUACAUGAUAAAAUGUGAUCACGUCUAGAAGGGAUUACUAACA [SameState NG2 #39] (Eterna round: R96, puzzle: Same State NG 2) |  | 52.5 |  |  |  |  |
| GGAGCCGGCACCGAGGAUAUUCAUAUUAAAACAUGAGGAUCACCCAUGUAGGCCAGAAGGCCUUGGGAGAAGGCGGACCGGCUCG [Xeonanis - 4] (puzzle: Same State 2) |  |  |  | 24 | 520 | 664 |
| UAUUAAGCUGUAGGAUAUCUAGGAUAUGGACGAGGAUCACCCGAGCAGCAUCAGCGCACCAGAGGAGAGAAGGACGCUUUGGAA [pwkr ssNG2 2F5 2FMN.3] (Eterna round: R96, puzzle: Same State NG 2) | 463 | 882 | 916 |  |  |  |
| GUCAGGUAAGCUUUUUUCUCGUAGUGUAAACAUGAGGAUCACCCAUGUGCUCACCCUGGAUCUUUGGAUCGCAGAAA [Atormace] (puzzle: Sensor for hsa-mir-208a) |  |  |  | 16.5 | 14.3 | 17.1 |
| CGCUGUCACGCAGGAUAUGCAUUGGAUUACAAUGCAGAAGGGCGAUCACAUGAGGAUCACCCAUGUGUAGACAGUGAAGAAGAG [MOD2 JMF Solution 3] (Eterna round: R96, puzzle: Same State NG 1) | 46.1 | 479 | 480 |  |  |  |
| AUUAUUUAUGCAGGAUAUGAUUAACAUGAGGAUCACCCAUGUGGUGUUGUGAGUAAGGAGAGUGAUCAGAAGGGCAUUUUAUUU [JMF's solution 50] (Eterna round: R96, puzzle: Same State NG 2) | 1560 | 522 | 571 |  |  |  |
